Source: patent US20240245805A1 (Orna Therapeutics, Inc., priority 2020, published 2024)

Test system: HEK293 cells
Assay type: cell-based, human
Details: circular RNA encoding Gluc with the listed IRES (UTR truncated to 675 nt) transfected into HEK293 cells; supernatant after 24 hours

B1: Avian orthoreovirus segment S1 (nucleic acid, listed as Avian orthoreovirus)
DNA: GCTTTTTCAATCCCTTGTGTCGATGTTCCCGTATGTCATCTGGTTCATGTAACGGTGCAACTTCTATTTTTGGTAACGTTCACTGTCAGGCAGCGCAAAACTCGGCGGGTGGTGATCTTCAAGCGACTTCCTCTCTTGTTGCTTATTGGCCCTACTTGGCTGCGGGCGGTGGTCTGCTCGTTGTTATTATTATAATTGTTGGCGCTGTTTGTTGTTGCAAGGCTAAGGTTAAAGCGGACGCAGCCCGAAACGTTTTCTACCGAGAGCTGTTCGCACTTAATTCGGGTAAAAGTGATGCAGGACCTCCGATTTACCAGGTTTAGTGTACGACGATTTGAGTTTTCACCTTTCGTCTTAGAGGAGTGCACTACTCCATCTTTCACGACTATAACTAATACCGATCCGGCTCTCTACTTTAACATTGAGTTTCCGTCAAGTCATCGTCTCTCCCCCTTCATTCCAGAACTGTTGTCTCAGCCTTGTACCGTTCACGTTTCATTGATTCGGAGATTCGCTCTCTGTGCAACCTTATCTAGTATTTGTGAATACGACTGTGCGCTACTGCCATCCATCAACGCTATTACGACGATCCCTACACCAGGTGCGTCATCATCTCTGATTGTTCATTGGG
Expression (luminescence from secreted Gluc protein): 4.37E+05

B2: Yak enterovirus (nucleic acid, listed as Enterovirus sp.)
DNA: CTCCGGCACAGCCGCACCAGTGCACTGGTACGCTAGTACCTTTTCACGGGGTAGTCGGTATCCCCCCCCGTAACTTAGAAGCATGTAACAAACCGACCAATAGGTGCGCGGCAGCCAGCTGCGTTGCGGTCAAGCACTTCTGTCTCCCCGGTCCGCAAGGATCGTTACCCGCCCACTCCACTACGAGGAGCCTAGTAACTGGCCAAGTGATTGCGGAGTTGCGTTCAGCCACAACCCCAGTGGTAGCTCTGGAAGATGGGGCTCGCACATCCCCCGTGGTAACACGGTTGCTTGCCCGCGTGTGCTTCCGGGTTCAGTCTCCGACTGTTCACTTCAACATCACGCAACCAGCCAAGAGCCGATTGTGCTGGAGTGGTCTTCCTCCGGGGCCGTGAATGCTGCTAATCCTAACCTCCGAGCGTGTGCGCACAATCCAGTGTTGCTACGTCGTAACGCGTAAGTTGGAGGCGGAACAGACTACTTTCGGCACCCCGTGTTTCCTTTATTTTATTCTTATTTTATGGTGACAATTGCAGAGATTTGTGATATTGCGACTTTACCGTTAAACATAGCACTGCATTACCTGGTTGCATTCCACAAAACTTCAGAGATTCCTAGTTCCTACATTGACCTACTTGTTTATTTGAATCTTAAATACAAACTTGAGCAAGTGAA
Expression (luminescence from secreted Gluc protein): 6.19E+06

B3: Sclerotinia sclerotiorum dsRNA mycovirus-L (nucleic acid)
DNA: TTGAATTAATCTTTTACGTTTACGCGCATAAAATCAGGACACATCTCTTGTATACTTTAGTATATCAATGATGTTTTTGTTTTATGCGATTAATCGTAAGAGAACTTCTTTCCATCCGCCTGTATGGGCGGGATAATAAGTTCACCGCCTTGGTCGAGGCGCAAACTTGTATGTGCAAAGGTGAGCTATATGCTCGAAATAGTCGTAACTAACACACAGCCACTACCTGTAGAGCTCTATTGATCCGGAATCCTTTAGTGGGAATGCAGAGCTCACACCGGACCTGCGGGTATCTTCGGCGTTAGGGACTTCTGTTTCAGCCTTGAATCATTTACCTTTATACCTTCTCTGAGGCGCCTGGGCCGGGCGCGATATTAAGTACAAGTCAAGGACATCGCGGGTAGTGGTCTAATCAGCCGCTAGTCCTGCTGGAGAGTTCCAACTTAGTTGGGTGTGGTGCATACTAGCTGGATAGAGTAGGTATGTATTGCTAACGTATGCCGGAGGCTATCCGTCCTCGGTAGAACGTGCCGAGGAGTAGTCTCTGCAGACCCCCGAACGCGTGGGGTCTTTACTTAAATGTAGGCGGAGGGAGCGCTCGTAGGTGGAACGACTGCCTCCCAGTCGAATGCAAGATTTTGCACGCGGACCAGTCTGCCCGGCAATTCCCGGGTG
modifications: source: /note="Description of Unknown: Sclerotinia sclerotiorum dsRNA mycovirus-L sequence"
Expression (luminescence from secreted Gluc protein): 1.69E+05

B4: Wobbly possum disease virus (nucleic acid)
DNA: CGGCTGTGAGTGCTTAGCATATGCTAGAGTACTACAGCCGGGTGTTGGAGTCATATGCACTGGTTGCCTGTATAATAGTCGGGATCTGTCTGACCTACATTATCTTTGGGAGTTGCTTATCACGACAATTCTCGAAGTGTCTGTCGACAGCTTACCCCCGATTCGACAAGGCCCCTTGTCCACCGCAGACCTATCGATTTTCAACGAGAACACTATCAGAGGTTTAAATTTAAAACTCACCAACA
modifications: source: /note="Description of Unknown: Wobbly possum disease virus sequence"
Expression (luminescence from secreted Gluc protein): 2.60E+05

B5: Seneca valley virus (nucleic acid)
DNA: TTTGAAATGGGGGGCTGGGCCCTGATGCCCAGTCCTTCCTTTCCCCTTCCGGGGGGTTAACCGGCTGTGTTTGCTAGAGGCACAGAGGGGCAACATCCAACCTGCTTTTGCGGGGAACGGTGCGGCTCCGATTCCTGCGTCGCCAAAGGTGTTAGCGCACCCAAACGGCGCACCTACCAATGTTATTGGTGTGGTCTGCGAGTTCTAGCCTACTCGTTTCTCCCCCGACCATTCACTCACCCACGAAAAGTGTGTTGTAACCATAAGATTTAACCCCCGCACGGGATGTGCGATAACCGTAAGACTGGCTCAAGCGCGGAAAGCGCTGTAACCACATGCTGTTAGTCCCTTTATGGCTGCAAGATGGCTACCCACCTCGGATCACTGAACTGGAGCTCGACCCTCCTTAGTAAGGGAACCGAGAGGCCTTCGTGCAACAAGCTCCGACACAGAGTCCACGTGACTGCTACCACCATGAGTACATGGTTCTCCCCTCTCGACCCAGGACTTCTTTTTGAATATCCACGGCTCGATCCAGAGGGTGGGGCATGACCCCTAGCATAGCGAGCTACAGCGGGAACTGTAGCTAGGCCTTAGCGTGCCTTGGATACTGCCTGATAGGGCGACGGCCTAGTCGTGTCGGTTCTATAGGTAGCACATACAAAT
modifications: source: /note="Description of Unknown: Seneca valley virus sequence"
Expression (luminescence from secreted Gluc protein): 1.46E+07

B6: Shingleback nidovirus 1 (nucleic acid)
DNA: CTGTGAGTACCGACAGGCTCGAAGTCTATTATGAGGCGTCGAAACAGAAAACCTGTAACAACTCCGGTTTCATCTATCACTGCCGTCAAGAGGCAGAAGAGGACGACCACGTGTCACCAGATCACTTGTATCTGTTTCAGTCAGGAAGTCAACTTTTCGACGAAGTTCGACCATTCATCGACCCGCTGAAAAGCGTAGAAGTCGATGAAGATGAGCTCCAAAGAGCCATCGCCGATTTCGACAACCAAAGTGACTGTTTCCACTCCTTCGAGCTCGTGAATTTCGAGCTGAAACAACAAATCAACGAGAACGAGTGGTACGGTTATTATAATTACGACAACCAAAACTGCAAAGTTCAGTTGCCAGTCACATGTCGAATCGAGGACGTAACCTGGGATCAGGTTTACGTG
modifications: Shingleback nidovirus 1
Expression (luminescence from secreted Gluc protein): 2.62E+05

B7: Rabovirus A (nucleic acid)
DNA: CTACGGATATTTGCATGACCCGCTTTCTATCGCCCCAACAATCCCCTTTGTAACCACAAGCTTTACTCAGGCTAGCAGCCCGACTAGCTGTTTGGAAGAAAAGGCTAGGGCACACACCAACAACACCGACCCCACTGGTCGAAGGCCGCTTGGCAATAAGACTGGTGGAACAGGGTCGCCTGTAGTTGTTTGGAACATTCTTTCTAATGACTTTGTCAGCGGTGCTACTCACACCGTAACTCTTCTACCCTATCCCCACGCTTGTGGAACTAGGAGGGGATGAGTGATTCAAGTAAGTACTGTCAGAATGGTGAAAATGATCTGATTCTGAAACGCTATGGATCCATCGAAAGATGGGGCTACACGCCTGCGGAACAACACATGGTAACATGTGCCCCAGGGGCCGAAAGCCACGGTGATAGGATCACCCGTGTAGTTTGAGATCATATCAATGTTCATAGTCTAGTAAGATGATTTGAAATCTAACTGAGCTGATGGCTAACTGCTTGTCTTATTGCGGCCTAAGGATGTCCTGCAGGTACCTTTAGATAACCTTAAGAGACTATTGATCTGAGCAGGAGCCAAAGTGGTCTTTCCCAGCTTTGGTTAAAAAACGTCTAAGCCGCGGCAGGGGGCGGGAGGCCCCCTTTCCTCCCAAAACTTAATATTGATTGT
modifications: lipid formulation; Rabovirus A
Expression (luminescence from secreted Gluc protein): 2.88E+06

B8: Picornavirales sp. isolate RtMruf-Pico V (nucleic acid)
DNA: TTTGCTCAGCGTAACTTCTCCGGGTTACGTGGAGACCAAAAGGCTACGGAGACTCGGGCTACGGCCCTGGAGCACCTAGGTGCTCCTAAAGACGTTAGAAGTTGTACAAACTCGCCCAATAGGGCCCCCCAACCAGGGGGGTAGCGGGCAAGCACTTCTGTTTCCCCGGTATGATCTCATAGGCTGTACCCACGGCTGAAAGAGAGATTATCGTTACCCGCCTCACTACTTCGAGAAGCCCAGTAATGGTTCATGAAGTTGATCTCGTTGACCCGGTGTTTCCCCCACACCAGAAACCTGTGATGGGGGTGGTCATCCCGGTCATGGCGACATGACGGACCTCCCCGCGCCGGCACAGGGCCTCTTCGGAGGACGAGTGACATGGATTCAACCGTGAAGAGCCTATTGAGCTAGTGTTGATTCCTCCGCCCCCGTGAATGCGGCTAATCCCAACTCCGGAGCAGGCGGGCCCAAACCAGGGTCTGGCCTGTCGTAACGCGAAAGTCTGGAGCGGAACCGACTACTTTCGGGAAGGCGTGTTTCCTTTTGTTCCTTTTATCAAGTTTTATGGTGACAACTCCTGGTAGACGTTTTATTGCGTTTATTGAGAGATTTCCAACAATTGAACAGACTAGAACCACTTGTTTTATCAAACCCTCACAGAATAAGATAACA
modifications: lipid formulation; source: /note="Description of Unknown: Picornavirales sp. isolate RtMruf-PicoV sequence"
Expression (luminescence from secreted Gluc protein): 2.26E+08
